Results from US20210079037A1, “LIGHT-SWITCHABLE POLYPEPTIDE AND USES THEREOF” (TECHNISCHE UNIVERSITÄT MÜNCHEN, priority 2017, published 2021).
Numbered stars: 1 amine (or outer) side, 2 acyl side, 3 side chain; on linkers, the order of the positions; unused ones are H or OH. Square brackets hold non-standard residues; d marks the D form. Caf = 4′-carboxyphenylazophenylalanine, O=C([C@H](Cc1ccc(/N=N/c2ccc(C(=O)[*:3])cc2)cc1)N[*:1])[*:2]

Target: mouse anti-6×His antibody alkaline phosphatase (AP) conjugate (Arigo Biolaboratories)
Experiment: ELISA, curve fit; ProtL^Caf337-ABD in a dilution series on HSA-coated plate, Ig-AP conjugate at 1:1000; ground state (trans-Caf)

B1: ProtL^Caf337-ABD (designed binder)
chain: MKEEVTIKVNLI[Caf]ADGKTQTAEFKGTFEEATAKAYANADLSAKENGEYTADLEDGGNTINIKFAGGAVDANSLAEAKVLANRELDKYGVSDYYKNLINNAKTVEGVKALIDEILAALP
Kd: 140 nM
